Data taken from the supplement of paper PMC11908140.

B1: library; numbered along this chain (parent)
chain: MRKPRAAVGSGHRKQAASQEGRQKHAKNNSQAKPSACDGLARQPEEVVLQASVSSYHLFRDVAEVTAFRGSLLSWYDQEKRDLPWRRRAEDEMDLDRRAYAVWVSEVMLQQTQVATVINYYTGWMQKWPTLQDLASASLEEVNQLWAGLGYYSRGRRLQEGARKVVEELGGHMPRTAETLQQLLPGVGRYTAGAIASIAFGQATGVVDGNVARVLCRVRAIGADPSSTLVSQQLWGLAQQLVDPARPGDFNQAAMELGATVCTPQRPLCSQCPVESLCRARQRVEQEQLLASGSLSGSPDVEECAPNTGQCHLCLPPSEPWDQTLGVVNFPRKASRKPPREESSATCVLEQPGALGAQILLVQRPNSGLLAGLWEFPSVTWEPSEQLQRKALLQELQRWAGPLPATHLRHLGEVVHTFSHIKLTYQVYGLALEGQTPVTTVPPGARWLTQEEFHTAAVSTAMKKVFRVYQGQQPGTCMGSKRSQVSSPCSRKKPRMGQQVLDNFFRSHISTDAHSLNSAAQ

Variants of: B1
Experiment: 8OG:A repair function score (normalized; synonymous = 0, nonsense = -1) (normalized log-likelihood score); higher = more repair activity (WT-like)
Settings: with 8OG:A DNA repair reporter (GFP) in HEK-293 MUTYH KO cells
In short: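 With 10 pg/ml doxycycline, MUTYH knockout HEK-293 cells carrying lentiviral MUTYH cDNA NNN codon-scan libraries were co-transfected with mCherry and an 8OG:A GFP repair reporter. Viable mCherry+ cells were sorted into GFP+ (repair) and GFP− bins at 72 h, three replicates per tile, and tile amplicons were sequenced. Per-tile Rosace fitness scores were then normalized into a repair function score anchored on synonymous and nonsense distributions. Medians were fixed at 0 for synonymous and -1 for nonsense, excluding variants under 300 counts per million at the start.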

Variant | 8OG:A repair function score
V328S | -0.00939
H416Y | -0.438
K164Q | -0.101
Y428G | -1.13
L373D | -1.15
Q113I | -0.279
L131H | -0.283
S507I | -0.0448
D208C | -1.02
Q132P | 0.0126
P488K | 0.0286
R283E | -0.246
Q239I | -0.589
Y428K | -0.832
E433R | 0.0685
A391F | 0.112
T346R | -0.56
G258H | -1.65
A177H | -0.14
P185N | -0.12
Y76A | -1.05
V107G | -0.0408
G401R | -0.272
W321M | -0.218

Variant | 8OG:A repair function score
V206E | -1.01
Q252N | -0.588
M478R | -0.0213
P383A | 0.0723
A194D | -1.03
C311Q | -0.575
T424R | -0.0759
G412C | -0.809
T308S | -0.000367
R69T | -0.172
L237H | -0.433
R283Q | -0.0283
G356K | -0.0901
P129I | -0.53
G368I | -0.7
E178P | -0.125
A259P | -1.09
Q286T | -0.00617
L234T | -0.464
P244Y | -0.542
L360R | -1.17
Q498R | 0.0169
W447F | -0.355
G205L | -1.03

Variant | 8OG:A repair function score
Q358T | 0.145
F376W | -0.757
S483G | -0.0331
H420V | -0.371
V261G | -0.599
R283V | -0.0935
T112I | -1.18
L355G | 0.0028
G434Q | -0.0366
G412L | -0.855
S136N | -0.0676
P338F | -0.101
E285A | 0.00663
V327M | -0.375
C311T | -0.566
A345E | -0.567
G429D | -0.382
V441G | -0.221
T179Y | -0.146
A63H | -0.0822
F376R | -1.31
N307E | -0.0119
L289Y | -0.00792
H416S | -0.0543

Variant | 8OG:A repair function score
R279E | -0.233
T112D | -1.3
R283Y | -0.0964
M173N | -0.945
P443T | -0.199
M255C | -0.788
A513I | 0.00892
P317D | -0.029
Q202V | -0.0323
R336V | -0.148
W103C | -0.655
Q239K | -0.0216
V142P | -0.569
M173Q | -0.93
N210T | -1.03
A137H | -0.568
W85D | -1.51
R2K | 0.125
C314S | -0.593
L430W | 0.0653
V142Y | -0.971
L349V | -0.0456
Y120E | -0.482
L370W | -0.364

Variant | 8OG:A repair function score
A238P | -1.01
V214C | -0.56
P317C | -0.0347
Q240L | -0.948
T417W | -0.253
R42Q | 0.102
P174Q | -0.827
V104F | -1.1
Q50A | -0.00978
G434H | -0.0472
Q113K | -0.158
D96K | -0.758
P443Q | 0.0864
R189M | -0.341
A89N | -0.00625
L516F | 0.0067
G475E | -0.00575
G39S | 0.0658
L501V | 0.00157
L349I | 0.0298
A101K | -0.0477
V211Y | -0.329
W447P | -0.941
R491Y | -0.0848

Variant | 8OG:A repair function score
C304V | -0.331
Q394F | -0.00248
C477H | 0.0203
R2T | 0.0193
A147D | -0.118
G222E | -0.565
R88C | -0.0122
V48K | 0.119
R467G | -0.0609
I221P | -1.01
L145P | -1.26
G201M | -0.244
A371V | -0.554
H514D | -0.0358
V107F | -0.314
L387P | -0.26
R409M | -0.242
E92T | -0.112
T263F | -0.0981
L215W | -0.704
S507P | 0.0118
P34A | -0.039
E395T | -0.194
L315E | -0.305

Variant | 8OG:A repair function score
P267N | -0.863
Q126E | 0.0677
V362K | -0.0434
K481F | 0.0166
A345C | 0.0391
P185G | -0.141
G150C | -0.982
P404A | -0.142
T440C | 0.0206
Q132H | -0.0442
Q43K | 0.0479
N143Q | -0.222
K390L | -0.0847
L373Q | -0.26
L215G | -0.867
R446H | -0.177
L432K | -0.608
I195E | -1.06
K464L | -0.298
Q233I | 0.198
P273S | -0.426
A371W | -0.408
S419G | -0.522
